Assay results as given in the Human Domainome abundance scans (Beltran et al. 2025).

B1: Ankyrin-3, residues 4094 to 4171; numbered along this chain, Q12955 (parent)
chain: MAIVADHLGLSWTELARELNFSVDEINQIRVENPNSLISQSFMLLKKWVTRDGKNATTDALTSVLTKINRIDIVTLLE

Variants of: B1
Experiment: abundance fitness (aPCA) (normalised: wild type 0, dead -1); higher = more abundant; growth selection in yeast, the domain comes from the species named
Conditions: Homo sapiens

Abundance fitness of substitutions, site by site:
M43: T 0.033; P -0.892; H 0.014; A 0.047; L -0.152; D 0.028; S 0.005; K -0.185; C 0.1; I -0.431; E 0.056; R -0.128; V -0.074; G 0.02; W -0.168; F -0.265
S41: V -0.851; G -0.047; A 0.032; F -0.815; P -0.972; I -0.74; M -0.815; E -0.912; N -0.748; T -0.211; R -0.725; Y -0.67; C -0.538
K46: I -0.581; V -0.373; M -0.204; P -0.915; W -0.541; C -0.432; L -0.377; R -0.018; G -0.337; N -0.044; F -0.762; Y -0.665; S -0.024; Q 0.124; T -0.061; H -0.195; E -0.013
K47: V -0.487; Q -0.19; H -0.11; S -0.068; T -0.149; G -0.31; P -0.956; C -0.369; Y -0.39; N -0.033; W -0.124; E -0.235; M -0.005; D -0.177; L -0.099; F -0.138
F42: L -0.063; I -0.03; R 0.188; D 0.165; G 0.113; V 0.042; W 0.022; S 0.174; Q 0.074; T 0.086; N 0.104; Y 0.023; A 0.043; M 0.102; H 0.119; K 0.201
G53: Q -0.065; L -0.832; M -0.772; D -0.578; H -0.3; K -0.145; T -0.521; C -0.545; Y -0.962; R -0.367; P -0.149; F -0.728; S -0.325; A -0.457; E -0.111; V -0.672; W -0.849
I38: W -0.039; N 0.234; V 0.027; C -0.038; A -0.02; T -0.122; S 0.078; K 0.05; H -0.167; M 0.009; E 0.15; R 0.089; Q -0.133; L -0.183; P -0.041; G -0.006; D -0.286
L44: Y -0.693; A -0.391; T -0.561; E -0.902; S -0.914; G -0.93; R -0.796; V -0.171; W -0.806; D -0.695; M -0.074; Q -0.784; I -0.371; C -0.116; H -0.75; P -0.867
W48: R -1; S -0.928; P -0.923; T -0.876; M -0.635; H -0.752; Q -0.808; G -0.811; V -0.887; I -0.83; L -0.715; C -0.868
L37: E 0.026; Q -0.032; Y -0.141; K -0.169; R -0.526; D -0.254; H -0.107; N -0.359; C -0.15; T -0.03; P -0.089; V 0.048; S -0.132; W -0.395; A -0.095; F -0.231; G -0.413; M -0.014
S39: C -0.011; F -0.434; A 0.05; T -0.016; H -0.084; N 0.142; W -0.47; Y -0.616; Q 0.087; G -0.048; P -0.685; L -0.184; E -0.103; D -0.013; K 0; R 0.001; V -0.209; M -0.071
S36: M -0.778; L -0.933; E -0.172; D 0.155; T -0.297; C -0.184; R -0.449; K -0.626; P -0.878; H -0.295; G -0.28; V -0.952; F -0.717; Q -0.336; A -0.609; N -0.044
V49: C -0.095; N 0.057; K -0.093; T -0.115; P -1.02; M -0.082; L -0.058; I -0.041; D -0.392; R 0.024; E 0.087; G -0.168; S -0.034; F -0.154; Y 0.021; A 0.022; Q 0.07; W -0.361
P34: S -0.145; T -0.366; F -0.479; R -0.26; G -0.299; K -0.561; E -0.24; H -0.268; L -0.874; M -0.658; W -0.9; N -0.331; V -1.11; Q -0.067
R51: V -0.789; M -0.682; P -0.77; L -0.829; K -0.531; W -0.503; C -0.744; I -0.616; A -0.78; T -1.02; Q -0.994; G -0.499; H -0.848; Y -0.773; D -0.637
T50: E -0.008; N -0.204; R -0.094; Y 0; W -0.065; M 0.035; I -0.18; Q -0.024; A 0.097; V -0.036; H 0.051; S -0.016; G 0.026; K 0.098; F -0.247; L 0.041; D 0.089; P -1.02
K54: P -0.107; L -0.051; A -0.019; M -0.1; D -0.233; E -0.132; F -0.156; C -0.088; N -0.316; H 0.037; I 0.065; Q -0.054
D52: P -0.767; A -0.274; I -0.255; V -0.575; N -0.687; H -0.577; E -0.025; Q -0.359; L -0.89; W -0.874; S -0.589; T -0.607; K -0.358; Y -0.717; C -0.549; G -0.625; F -0.748
Q40: L -0.833; A -0.064; D -0.726; V -0.894; I -0.663; P -0.646; G -0.74; Y -0.672; C -0.127; N -1.03; H -0.622; T -0.725; R -0.407; S -0.312; K -0.35; W -0.736; F -0.74
L45: W -0.862; P -0.92; Q -0.833; I -0.302; M -0.193; V -0.603; G -0.906; E -0.851; H -0.449; A -0.862; S -0.881; C -0.444; R -0.865
N35: H -0.266; F -0.499; T -0.018; A -0.215; Y -0.307; R -0.128; L -0.626; I -0.337; E -0.082; C -0.212; K -0.329; G -0.065; D -0.053; Q -0.077; S -0.174; W -0.487; P -0.665; V -0.48
